Measurements: US20210140973A1 (NITTO BOSEKI, published 2021)

Assays:
[1] = biological target: T1, human IgG4 purified from human serum (human); assay: SPR (Biacore), IgG4 immobilized on chip by amino coupling, antibody as analyte
T1 construct: also called IgG4 antigen; human IgG4-sensitized latex
Description: MaI4-08 and MaI4-09-produced antibodies, and, as a control, MaI4-05-produced antibody and 1 mg/mL of HP6025 were adjusted to 1 mg/mL. In addition, 1 mg/mL of IgG4 was prepared from the one purified from human serum. According to the protocol of Sumika Chemical Analysis Service, Ltd., IgG4 was immobilized onto a chip by an amino coupling method, and a sensorgram was obtained by a Biacore model. The obtained binding rate constant (kₐ), dissociation rate constant (kd), and dissociation constant (KD) were as shown in Table 11.

[2] = biological target: Myeloma human IgA1 (Abcam) (human, UniProt P01876-1 1-353); assay: indirect ELISA, antigen coated 1 µg/mL, antibody 1 µg/mL; no-antigen well 0.042
Description: (§1) Myeloma human IgA1 (Abcam), Myeloma human IgA2 (Abcam), Myeloma human IgD (Abcam), Myeloma human IgE (Abcam), Myeloma human IgM (Abcam), Myeloma human IgG1 (EMD Millipore), Myeloma human IgG2 (EMD Millipore), Myeloma human IgG3 (Sigma-Aldrich Co. LLC), and Myeloma human IgG4 (EMD Millipore) were adjusted to 1 μg/mL with PBS(−). The adjusted samples were added to a 96-well plate (Thermo Fisher Scientific) by 100 μL, respectively. The plate was shaken by a shaker under the condition of 700 rpm and 25.0° C. for 1 hour. The solutions were discarded, the plate was cleaned with 300 μL of PBST 3 times, 100 μL of a blocking buffer solution was added to each well, and then the plate was stored at 4° C. one night or more. Similarly, after cleaning with PBST, the MaI4-08 and MaI4-09-produced antibodies were adjusted to 1 μg/mL with an antibody dilute buffer solution and then added to each well by 100 μL, and the plate was shaken under the same condition as mentioned above. Similarly, after cleaning with PBST, a HRP labeled anti-mouse IgG antibody (Abcam) diluted 4000-fold with an antibody dilute buffer solution was added to each well by 100 μL, and the plate was shaken under the same condition as mentioned above. Similarly, after cleaning with PBST, 100 μL of SureBlue (KPL) was added. 5 or 3 minutes later, 100 μL of 0.5 mol/L sulfuric acid (Wako Pure Chemical Corporation) was added to each of MaI4-08 and MaI4-09. Absorbance at a wavelength of 450 nm was measured with a microplate reader (BIO-RAD Laboratories, Inc.). As a result, a strong signal was given to Myeloma human IgG4 as compared to the other samples (Tables 2 and 3, and FIGS. 2 and 3).

[3] = biological target: Myeloma human IgA2 (Abcam) (human, UniProt P01877-1 1-340); assay: as above
Description: as §1

[4] = biological target: Myeloma human IgD (Abcam) (human, UniProt P01880-1 1-384); assay: as above
Description: as §1

[5] = biological target: Myeloma human IgE (Abcam) (human, UniProt P01854-1 1-428); assay: as above
Description: as §1

[6] = biological target: Myeloma human IgM (Abcam) (human, UniProt P01871-1 1-453); assay: as above
Description: as §1

[7] = biological target: T2, Myeloma human IgG4 (EMD Millipore) (human); assay: as above
T2 construct: Bought myeloma protein
Description: as §1

[8] = biological target: T3, Myeloma human IgG1 (EMD Millipore) (human); assay: as above
T3 construct: Bought myeloma protein
Description: as §1

[9] = biological target: T4, Myeloma human IgG2 (EMD Millipore) (human); assay: as above
T4 construct: Bought myeloma protein
Description: as §1

[10] = biological target: T5, Myeloma human IgG3 (Sigma-Aldrich Co. LLC) (human); assay: as above
T5 construct: Bought myeloma protein
Description: as §1

[11] = biological target: T6, GST-tagged peptide H5 (positions 1 to 110 of the human IgG4 heavy chain constant region) (human, UniProt P01861 1-110 = IgG part); assay: Western blot: E. coli lysate with the GST-tagged peptide, SDS-PAGE, PVDF membrane, POD-labelled antibody diluted 1000-fold, ECL
T6 construct: E. coli lysate on Western blot; not shown: GST tag (glutathione S-transferase) linked to the N terminal, expressed from vector pGEX-6P-1
Description: Based on the designed amino acid sequences, base sequences suitable for expressing protein in E. coli were designed according to the protocol of GenScript Corporation, thereby preparing vector pGEX-6P-1 (GE Healthcare Bio-Sciences Corp.) to which the respective base sequences are inserted. The prepared expression plasmid was introduced to E. coli BL 21 strain, thereby obtaining a transformant. The transformant was cultured by an ordinary method and a protein expression was induced by IPTG. After the cells were collected by centrifugation, the cells were dissolved with an ordinary lysis solution, and subjected to ultrasonication. 6 μL of an SDS sample buffer solution was added to 6 μL of the obtained lysate. The respective prepared samples were subjected to a heat treatment at 95° C. for 5 minutes. 10 μL of the E. coli disrupted sample was added to each well of 5 to 20% electrophoresis gel (Atto Corportation) to which an SDS electrophoresis buffer solution was added. Similarly, a molecular weight standard (Bio-Rad Laboratories, Inc.) was added to each well and electrophoresed. After completing the electrophoresis, the electrophoresis gel was transcribed to a PVDF membrane (Millipore Corporation) with a transfer buffer solution. The PVDF membrane was immersed in a membrane blocking buffer solution, and then shaking was carried out at room temperature for 30 minutes. Amino groups of MaI4-08, MaI4-09, and MaI4-05-produced antibodies were subjected to a POD labeling treatment with a POD labeling kit (Dojindo Molecular Technologies, Inc.). The obtained labeled antibodies each were diluted 1000-fold by PBST. After the PVDF membrane was cleaned with PBST, the antibody solutions prepared each were added to the PVDF membrane, and then the reaction was performed at room temperature for 1 hour. After the PVDF membrane was cleaned by PBST, a signal was detected with ECL Prime Western Blotting Detection Reagents (GE Healthcare) with Image Quant Las4000.

T1 sequence (constant, as listed by the source limits assumed): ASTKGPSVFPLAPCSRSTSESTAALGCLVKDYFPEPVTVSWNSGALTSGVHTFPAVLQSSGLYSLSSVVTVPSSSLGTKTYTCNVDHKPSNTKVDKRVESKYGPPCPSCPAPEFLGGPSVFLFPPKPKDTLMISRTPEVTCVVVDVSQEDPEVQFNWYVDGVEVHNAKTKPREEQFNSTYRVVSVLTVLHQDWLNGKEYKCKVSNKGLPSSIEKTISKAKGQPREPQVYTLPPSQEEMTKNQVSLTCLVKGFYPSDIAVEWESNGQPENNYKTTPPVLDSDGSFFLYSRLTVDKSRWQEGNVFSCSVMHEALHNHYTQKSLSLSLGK
Sequence of Myeloma human IgD (Abcam) (P01880 other isoform, or with tags, fused parts or gaps): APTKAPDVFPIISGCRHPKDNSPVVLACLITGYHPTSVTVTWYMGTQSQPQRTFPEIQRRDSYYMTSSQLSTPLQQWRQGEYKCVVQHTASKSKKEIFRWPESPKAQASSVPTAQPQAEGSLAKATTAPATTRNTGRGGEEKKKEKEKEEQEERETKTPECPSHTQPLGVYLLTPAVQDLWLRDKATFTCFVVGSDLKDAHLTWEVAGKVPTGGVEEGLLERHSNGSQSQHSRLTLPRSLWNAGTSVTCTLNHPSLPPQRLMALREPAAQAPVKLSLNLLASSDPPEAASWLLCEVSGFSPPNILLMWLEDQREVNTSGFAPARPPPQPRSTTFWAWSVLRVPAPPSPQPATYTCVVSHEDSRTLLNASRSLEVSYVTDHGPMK
Sequence of Myeloma human IgA1 (Abcam) (P01876 other isoform, or with tags, fused parts or gaps): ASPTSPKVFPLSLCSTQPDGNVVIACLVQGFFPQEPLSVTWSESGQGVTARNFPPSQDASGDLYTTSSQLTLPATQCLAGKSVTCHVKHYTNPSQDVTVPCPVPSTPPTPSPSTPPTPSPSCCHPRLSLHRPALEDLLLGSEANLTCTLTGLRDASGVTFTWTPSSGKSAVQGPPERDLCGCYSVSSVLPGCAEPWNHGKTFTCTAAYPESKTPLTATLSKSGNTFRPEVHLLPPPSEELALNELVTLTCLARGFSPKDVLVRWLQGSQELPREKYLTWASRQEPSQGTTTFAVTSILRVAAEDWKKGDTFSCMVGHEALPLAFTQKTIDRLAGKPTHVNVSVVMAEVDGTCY
Sequence of Myeloma human IgA2 (Abcam) (P01877 other isoform, or with tags, fused parts or gaps): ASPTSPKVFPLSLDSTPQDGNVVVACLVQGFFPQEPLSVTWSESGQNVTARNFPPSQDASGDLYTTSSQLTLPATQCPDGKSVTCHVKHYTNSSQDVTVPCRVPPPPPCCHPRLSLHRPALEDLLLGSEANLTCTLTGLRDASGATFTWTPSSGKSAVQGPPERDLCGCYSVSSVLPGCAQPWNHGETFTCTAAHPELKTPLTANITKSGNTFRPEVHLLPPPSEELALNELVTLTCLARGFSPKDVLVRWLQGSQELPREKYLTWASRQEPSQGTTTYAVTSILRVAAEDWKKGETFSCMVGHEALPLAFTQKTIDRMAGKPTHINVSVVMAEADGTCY
Sequence of Myeloma human IgM (Abcam) (P01871 other isoform, or with tags, fused parts or gaps): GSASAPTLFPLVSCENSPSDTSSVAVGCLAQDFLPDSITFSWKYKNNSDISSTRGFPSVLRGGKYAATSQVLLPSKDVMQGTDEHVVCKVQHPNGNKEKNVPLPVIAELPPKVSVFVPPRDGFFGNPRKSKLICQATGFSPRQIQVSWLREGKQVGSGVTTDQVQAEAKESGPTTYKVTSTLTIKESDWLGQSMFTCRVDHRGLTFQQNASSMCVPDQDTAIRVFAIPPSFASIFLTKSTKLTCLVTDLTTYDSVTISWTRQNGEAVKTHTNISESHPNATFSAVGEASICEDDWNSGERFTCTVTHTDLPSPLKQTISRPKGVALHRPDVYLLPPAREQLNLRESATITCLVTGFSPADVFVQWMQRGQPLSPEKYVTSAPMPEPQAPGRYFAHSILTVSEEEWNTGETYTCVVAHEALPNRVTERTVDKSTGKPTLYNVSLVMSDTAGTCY
T5 sequence (constant, as listed by the source limits assumed): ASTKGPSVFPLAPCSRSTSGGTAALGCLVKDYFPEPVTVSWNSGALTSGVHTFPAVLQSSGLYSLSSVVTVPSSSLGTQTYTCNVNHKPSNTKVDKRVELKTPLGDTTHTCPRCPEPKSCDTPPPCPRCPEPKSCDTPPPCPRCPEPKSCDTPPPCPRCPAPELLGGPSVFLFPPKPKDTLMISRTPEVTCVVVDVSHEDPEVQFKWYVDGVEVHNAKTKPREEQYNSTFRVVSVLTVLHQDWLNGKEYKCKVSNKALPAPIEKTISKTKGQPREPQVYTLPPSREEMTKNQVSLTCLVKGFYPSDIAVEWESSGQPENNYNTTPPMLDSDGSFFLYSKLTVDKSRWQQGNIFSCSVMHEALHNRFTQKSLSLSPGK
T3 sequence (constant, as listed by the source limits assumed): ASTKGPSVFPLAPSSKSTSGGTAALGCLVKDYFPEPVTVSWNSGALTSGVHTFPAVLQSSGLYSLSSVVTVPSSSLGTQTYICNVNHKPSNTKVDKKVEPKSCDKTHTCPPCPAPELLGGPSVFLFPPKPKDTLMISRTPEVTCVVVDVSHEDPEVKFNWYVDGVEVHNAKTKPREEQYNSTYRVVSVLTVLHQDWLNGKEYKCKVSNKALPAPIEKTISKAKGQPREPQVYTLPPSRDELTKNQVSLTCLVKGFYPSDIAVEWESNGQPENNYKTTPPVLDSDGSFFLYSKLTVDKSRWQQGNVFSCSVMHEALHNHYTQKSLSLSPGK
T6 sequence (P01861 1-110): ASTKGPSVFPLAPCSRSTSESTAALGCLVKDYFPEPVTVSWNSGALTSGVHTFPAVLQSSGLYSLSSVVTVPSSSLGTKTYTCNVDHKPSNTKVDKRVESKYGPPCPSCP
T4 sequence (constant, as listed by the source limits assumed): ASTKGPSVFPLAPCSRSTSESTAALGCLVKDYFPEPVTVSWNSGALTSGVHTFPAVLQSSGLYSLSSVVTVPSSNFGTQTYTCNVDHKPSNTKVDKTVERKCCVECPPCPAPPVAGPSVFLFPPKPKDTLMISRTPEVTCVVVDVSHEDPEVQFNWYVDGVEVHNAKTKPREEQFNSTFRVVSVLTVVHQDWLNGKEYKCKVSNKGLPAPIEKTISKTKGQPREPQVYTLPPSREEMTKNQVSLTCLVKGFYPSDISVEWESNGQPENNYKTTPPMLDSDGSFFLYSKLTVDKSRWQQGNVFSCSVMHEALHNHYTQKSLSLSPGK
Sequence of Myeloma human IgE (Abcam) (P01854 other isoform, or with tags, fused parts or gaps): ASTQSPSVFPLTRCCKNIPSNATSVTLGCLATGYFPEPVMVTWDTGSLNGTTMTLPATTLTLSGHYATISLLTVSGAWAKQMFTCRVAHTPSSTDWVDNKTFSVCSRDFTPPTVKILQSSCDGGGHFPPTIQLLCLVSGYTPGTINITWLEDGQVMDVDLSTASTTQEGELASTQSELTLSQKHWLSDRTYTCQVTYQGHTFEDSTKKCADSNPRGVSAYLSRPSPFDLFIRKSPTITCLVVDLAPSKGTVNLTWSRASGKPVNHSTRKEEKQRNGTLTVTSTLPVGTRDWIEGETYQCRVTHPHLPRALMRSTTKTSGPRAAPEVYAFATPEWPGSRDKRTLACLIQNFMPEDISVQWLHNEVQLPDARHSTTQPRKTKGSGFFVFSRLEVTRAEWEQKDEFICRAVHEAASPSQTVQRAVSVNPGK

B1: MaI4-08-produced antibody (antibody, IgG1, V domains shown)
VH: EVQLQQSGPELVKPGTSVKMSCKASGYIFTSYILHWVKQKPGQGLEWIAYINPYNDGTKYKEKFKGKGTLTSDKSSSTAYMELSSLTSEDSAVYYCARSGGGYGNYAWFAYWGPGTLVTVST
VL: DIQMTQSPSSLSASLGERVSLTCRASQDIGSSLNWLQQEPDGTIKRLIYATSSLDSGVPKRFSGSRSGSDYSLTISSLESEDFVDYYCLQYASYPPTFGAGTKLELK
notes: Purified on protein G from hybridoma culture supernatant; POD-labelled for the Western blots
B1 was tested, and the Kd [1] was 0.406 nM, the koff [1] was 0.000223 s⁻¹ and the kon [1] was 549000 M⁻¹ s⁻¹. The “absorbance at 450 nm” value [2] was 0.043, the “absorbance at 450 nm” value [3] was 0.043 and the “absorbance at 450 nm” value [4] was 0.042. The “absorbance at 450 nm” value [5] was 0.041, the “absorbance at 450 nm” value [6] was 0.042 and the “absorbance at 450 nm” value [7] was 2.04. For the same binder, the “absorbance at 450 nm” value [8] was 0.048, the “absorbance at 450 nm” value [9] was 0.047 and the “absorbance at 450 nm” value [10] was 0.044. B1: no binding [11].
